Publication doi:10.1101/2023.06.05.543797
Several values for one entry are separate records, joined by “and”; a condition that tells them apart may be missing. Equal entries are not always repeated.

What was measured:
Details in all cases: scale: KASH6 per SUN1
[1] = target: SUN domain of human SUN1 (amino-acids 616-812) (human); test: SEC-MALS
[2] = target: SUN domain of human SUN1 (amino-acids 616-812) (human); test: SEC-MALS; remark: listed apart in the source
[3] = target: SUN domain of human SUN1 (amino-acids 616-812) (human); test: crystal structure
[4] = target: SUN domain of human SUN1 (amino-acids 616-812) (human); test: SEC-MALS; remark: listed apart in the source

Row | Binder | stoichiometry N [1] | stoichiometry N [2] | stoichiometry N [3] | stoichiometry N [4]
1 | EDSWTSLEHILWPFTRLRHNGPPPV [KASH6 core (human JAW1/LRMP amino-acids 531-555)] | 1 | 0.67 |  | 
2 | TGQLFQKSVDAAPTQQEDSWTSLEHILWPFTRLRHNGPPPV [KASH domain of human JAW1/LRMP (amino-acids 515-555)] | 1 |  | 0.67 | 0.67 and 1
